For assay [1], the target named is T1, WT β-catenin_(41–49) peptide on HLA-A3 of T2A3 cells (Homo sapiens, HLA-A*03:01, UniProt P04439;P61769).
T1 construct: HLA-A3 stably transfected in T2A3 cells; human β2-microglobulin (ProSpec) added at pulsing; β-catenin amino acids 41-49; also called WT peptide-pulsed T2A3 cells; copies: + +
Description: flow cytometry on cells; T2A3 cells pulsed with peptide and β2-microglobulin, stained with ~1 × 10^10 phage for 1 h on ice; anti-M13 and PE anti-rabbit. Conditions: partners not purified. (In general: A flow cytometer gives signals particle by particle.)

Assay [2] concerns the target T1, WT β-catenin_(41–49) peptide on HLA-A3 …. The assay can be described thus: flow cytometry on cells; T2A3 cells pulsed with peptide and β2-microglobulin, stained with 1 μg scFv in 100 μl for 1 h on ice; PE anti-DYKDDDDK
Conditions: one partner purified.

B1: E10 phage clone (scFv displayed on M13 phage) (scFv, V domains shown)
VH: EVQLVESGGGLVQPGGSLRLSCAASGFNINNTYIHWVRQAPGKGLEWVASIYPTDGYTRYADSVKGRFTISADTSKNTAYLQMNSLRAEDTAVYYCSRTYYSYYSAMDVWGQGTLVTVSS
VL: DIQMTQSPSSLSASVGDRVTITCRASQDVNTAVAWYQQKPGKAPKLLIYSASFLYSGVPSRFSGSRSGTDFTLTISSLQPEDFATYYCQQSYYSPPTFGQGTKVEIK
notes: scFv from the first library on the humanized 4D5 framework (CDRs L3, H1, H2, H3 varied); source: phage display, amplified in SS320 E. coli with M13K07 helper phage
For B1, in assay [1], the binding result is “no binding”.

B2: E10 scFv with C-terminal FLAG tag (scFv, V domains shown)
VH: EVQLVESGGGLVQPGGSLRLSCAASGFNINNTYIHWVRQAPGKGLEWVASIYPTDGYTRYADSVKGRFTISADTSKNTAYLQMNSLRAEDTAVYYCSRTYYSYYSAMDVWGQGTLVTVSS
VL: DIQMTQSPSSLSASVGDRVTITCRASQDVNTAVAWYQQKPGKAPKLLIYSASFLYSGVPSRFSGSRSGTDFTLTISSLQPEDFATYYCQQSYYSPPTFGQGTKVEIK
notes: as the scFv of m19; source: E. coli, produced by AxioMx
For B2, in assay [2], the binding result is “no binding”.

B3: clone 7 phage clone (scFv displayed on M13 phage) (scFv, V domains shown)
VH: EVQLVESGGGLVQPGGSLRLSCAASGFNVWSYGIHWVRQAPGKGLEWVAGVTPDGSYTYYADSVKGRFTISADTSKNTAYLQMNSLRAEDTAVYYCSRSYGWAMDYWGQGTLVTVSS
VL: DIQMTQSPSSLSASVGDRVTITCRASQDVNTAVAWYQQKPGKAPKLLIYSASFLYSGVPSRFSGSRSGTDFTLTISSLQPEDFATYYCQQQYAYTPITFGQGTKVEIK
notes: scFv from the second library on the humanized 4D5 framework (CDRs L2, L3, H1, H2, H3 varied); also called cl; source: phage display, amplified in SS320 E. coli with M13K07 helper phage
With B3, in assay [1], the binding result is “no binding”.

B4: clone 7 scFv with C-terminal FLAG tag (scFv, V domains shown)
VH: EVQLVESGGGLVQPGGSLRLSCAASGFNVWSYGIHWVRQAPGKGLEWVAGVTPDGSYTYYADSVKGRFTISADTSKNTAYLQMNSLRAEDTAVYYCSRSYGWAMDYWGQGTLVTVSS
VL: DIQMTQSPSSLSASVGDRVTITCRASQDVNTAVAWYQQKPGKAPKLLIYSASFLYSGVPSRFSGSRSGTDFTLTISSLQPEDFATYYCQQQYAYTPITFGQGTKVEIK
notes: as the scFv of m22; also called cl; source: E. coli, produced by AxioMx
B4: the binding result in assay [2] is “no binding”.

Values taken from PMC6916501 (The Journal of Biological Chemistry, 2019).
